Data on one molecule can be found in patent US20090280480A1.

The target of experiment [1] is T1, NM, the N-terminal and middle region of Saccharomyces cerevisiae Sup35 (soluble, unpolymerized) (Saccharomyces cerevisiae), P05453.
T1 chain: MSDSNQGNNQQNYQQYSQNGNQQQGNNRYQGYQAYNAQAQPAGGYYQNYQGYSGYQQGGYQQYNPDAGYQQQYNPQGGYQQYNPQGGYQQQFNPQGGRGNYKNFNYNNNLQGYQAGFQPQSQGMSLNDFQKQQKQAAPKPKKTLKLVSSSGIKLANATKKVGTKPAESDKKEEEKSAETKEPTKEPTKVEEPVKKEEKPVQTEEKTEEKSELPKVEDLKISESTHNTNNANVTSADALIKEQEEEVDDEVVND
The experiment can be described thus: Microcon YM-100 (100 kDa cut off) filtration of fibrillization reactions. The following applies: remark: other sources report otherwise.

Experiment [2] has as its target T1, NM, the N-terminal and middle region of …. Nature of the experiment: quaternary structure analysis of soluble NM; method not named. The following applies: remark: other sources report otherwise.

B1: NM, the N-terminal and middle region of Saccharomyces cerevisiae Sup35 (soluble, unpolymerized), P05453 1-253 (protein)
chain: T1 chain
For the molecule B1, the percent of total NM in an oligomeric state in experiment [1] worked out at 10%. The molecule further yielded a percent monomeric after dilution out of denaturant in experiment [2] of 87%.
